Experimental data: PMC12173559

Molecular target: MERS-CoV receptor binding domain (RBD), biotinylated (MERS-CoV) (UniProt K9N5Q8)
Assay: BLI; […] (10 µg/mL) […] (SA) biosensor for 300 s; analyte in kinetic buffer (PBST, 0.1% BSA) […], association 120 s, dissociation 180 s; […]

Substance | Kd
rhesus monkey DPP4 (receptor) | 47.8 nM
alpaca DPP4 (receptor) | 58.4 nM
